# The DeepSol protein solubility set
# Assay: soluble on expression in E. coli; label from the status in PepcDB or PDB records
row,Sequence,soluble on expression in E. coli
1,MGPNHPCGYLPGRDARFTYVSPAYPLSPQSYRGLLEEGFRRSGNWVYRPCCIGCSACLPVRLPVHDFRLTRSHRRVIKRNADIDIRVSVARFDERQFQLYVRYLAARHPLEHHHHHH,not soluble
2,MGQNQFRWSNEQLREHVEVIDGTRSPHIVLRNATYLNSYIREWMQANIWIYDDRIIYVGEKLPEQLHECEVIDCDGKYVVPSYIEPHAHPYQLYNPETLANHAMQFGTTTFINDNLTLFFTLKRELEHHHHHH,not soluble
3,MGRFHRHDDGTVHSHDHDHHGHSHDVGDHSGYETGRERIEVLEDIFHENDHCAADNKELFDAHQVRCINIMSSPGAGKTTVLQHVLRAAEGKVRVGVVEGDIETSLDADRLTGFGAQISLLNTGNGFGGECHLDAPMVSRALRGLDLDTLDVVLIENVGNLVCPAEFEVGEHSKAMIYSVTEGEDKPLKYPVMFRSVDAVVINKIDLLPYLDFDMELFMKNLRQVNPDAKVFEVSAKTGEGLDGWIEWLVGAK,not soluble
4,MGSDKIHHHHHHAACSNDEKITESTPKTVALTVKLPEFGGASSRAIDPETTTGNKVTINGPVKIIARVSQGGAITNTISENITAGSMSTITVSGAAQWIEVEANGDNSTETDNVNTRQGSATSSKVRLFGGATINPGSGGNATCTPTISPDMARVEVKGSLGTSWTHLTDLKVKGIYINNIKLTRGVSSLTRIASAAWNTEYAPSGKFEKMFNDNLGGVGAGAGVAQITPGQADGYNFFPQKDNTLPLPTTKEDVMKNSIHIIMEVEFTRADGVPVVGPQWLNVVALKDNTATNYITDFEAGNVYSIDLADIKDIMDVPVPPVTPNPDPETVSVDLTVSIGQWTVVQVKPEV,not soluble
5,MGSDKIHHHHHHAADPVVVPANMEPLTIEGNRFVTLCIMIRTTPWEVSRDVKLHPRDEVDWHTLEGVRALREAFATNNPNGRLTWGFTMNALEDGRKNYREIRDYVVECQKKYGDEVTYFPGYFPAMYLPRERVNREMSEAIEIISKMVGNGYRPQSIMGGFLSADNLRYLAEKENIHVAHAVIWSQHNIDGGGADGSPSYPFYPSTEHFCKPAQGKSDFIDCVNLDGWTMDFICARRSGQTGHGIDGYNSRRGVGPIETYKGWGLDLGHREVMHTEAIHFDKGLELNGFGWVANIWEAQMVHEFGKDLICDAMKMWVTGTKERWPDTHFVTFGEFGELWRKQYKSNDDWNYRFVERGSGLGDSYNNLEIKWFMNKEFRLALLRDWHTKNSPAYVIDFTRYDLQAHEPADPSPEKPAKDWSLINKINQKALRPQDKPVLIDKLEKEDQDLIRKYYPELLK,not soluble
6,MGSDKIHHHHHHAAIPDTGNWISHHLLTSDGLTVLAAGPAFAPLKWNIGQNNMGGYKGRLLFIPYDAPSTVPMIPVKPTTNEDLITASGSFTFPSGGTYTQPIYLYSTKGKVGYKAEIQGETDGKSFKQTLEFFFPGNTPGMHAFSTLVKNTPGYFVFEDSDGQQFLMGKPGMYADVSPSFDGGKLAADQRGTAYTATCDANESAVVLGTPIDMEVIAGLKPAPSPGG,not soluble
7,MGSDKIHHHHHHAASVTPSSALLKKSNSYYRSHARALGKKYKLAFDAQSALKKNGKAVIYVNTKDKTLNQSVKLAMAYWNKKLGKTEFTQGSKKNHTLTFGVSTAAASKSDQSDAWWTPMTKKLDVRWSYYTAEKQNIGISMTNQLNKAFYKQYADTIETKAKANLAAKGITTSDKDYLSPFNREASNVETSLPAYTTLKKDVCLVKSTLANEGRKYEYASTIAHEMGHVMGLNHSPNKQDLMYFESGNNNVYSFKKVKAGLSKYNPITTTDKNRAKLALKIYVAAH,not soluble
8,MGSDKIHHHHHHADMDGSQNKETENKEIKIILEAETSSQNIFAPIVFYQSFDFGKDAPCLSEVYDSIVWKSSHSPNSFKVFSHSNYARYVETTFFKWAHVYYSPGTYKTYLLGYKNNEIIYSSDTISIDITNKKDFLAFNWKDVTDSDFTTGYANNLDGYYLSTQTHIHQGVPSVMLYAKNEKYEKGGSMKSKQILYNYINSFFSLPNYTATSDESLRKEFSTIFSFQEENAIPLNIWLTPKAKIVLLRKDFKGLESEYKIYAEPGDLI,not soluble
9,MGSDKIHHHHHHADTTDNTTTSSSTSANSGSTVQTKALSKAYVVYGAGLASEDKDTVASALGVKSNYTALTATGSDYATYLNAAGTTDASMISSVTLAPADPGTGVKVNIAKYNGSNNITEVTSQQYAMVATMAGVKDVIITVTADKSVSGESALTGVYKALAADGLTLNSQNTQAANGVLDATQPAIDSNSSDKKYPGKLMSAVGSVSSDLAKQRQNGNELATKADIEEMLQKALAKQGIANQTSSTQITNIAIALSQVQKAPVSTSKTYIKNVTNVADSLANSIGDKMASVKDFANSADAKQAENFIVQIWHNVVNFFKGLIGG,not soluble
10,MGSDKIHHHHHHAEVADSIEGGNGEAPLEVRAVTGAEVDTRAPAAVEMTEGTLGIFRLAEADYTALDNIRYDRVPGGNWHPVSTVIYVGGTYARLCAYAPYNSVEFKNSSLKTEAGLTMQTYAVEKDMRFAVSGGDEVWKKTPTANFELKRAYARLVLSVVRDATYPNTCKITQAKIKASTGNIITANTVDISTGTEGSGTQTPQYTHTVTTGLKDGFEIGVTDDTSFDWLLPQQTFSGGVVLTLTVDGMDYSVTIPVDKLSTFVRGTKYTVSLVVKGGKLTLMSDKILIDRDWTEVQTGTGGSGSDYDTSFN,not soluble
11,MGSDKIHHHHHHAKPVTSETMAAKTVGLQIYSLGKELYADVPGGLKKIKQMGYTNLELAGYKEGKIGGVDMMEFKKMVDDAGLKITSSHVNPPVREYTKANRSQISEYWKKTADDHAKLGVKYLIQPGQPSTRSTEETAFVCEIFNEAGKIVKAAGIPFGYHNHEMEFAKVNPGSTEAKLGRRVKGDCIYELFLKNTDPSLVFFEMDVYWAVMGQQDPIEWLKKYPNRIKVLHIKDRAILGESGMMNFENIFRQAYANGIKDYFVELEGMPDGRSQFEGVKGCVDYLLKAPFVK,not soluble
12,MGSDKIHHHHHHASEEDPWESINRPIFTFNDTLDTYALKPLAQGYQKVTPNFVQDGVHNFFNNLGDVKNLANNLLQAKFHNAGVDTSRLLFNSTFGLAGLIDVATPMGLQRNDEDFGQTLGYWGVGSGPYVMLPFLGPSTLRDAPAKIPDIYVSPYHYMDDVRARNVMFGINTVDTRANLLKSEKLISGDKYIFIRNAYLQNREFKVKDGEVEDDF,not soluble
13,MGSDKIHHHHHHATETEKDQRKFDYFFYEGLNLKNAGKFDAAYDAFNHCLEIDSTAAPVLYELSSFYVQLNRPEKAVEMLKRAVANSKDNFTYKMALASITRNLGMYGEAAEEYEELVRDYPEKEELNYYLADALTQAGEIGKAIEAYDALESVMGMNEAISMQKYKLYVQLEKPEEAFKEIEKLAAKYPMEARYQIVLGDLHLENGEMDKALACYQKANEIDPTDPYYIVSMANYYEAKGDKEAAEQQIRSALVNEKLDVETKVNILSRYILKLQQTKQGTENANHLFQTLLEQHPEDIDLKLMYGGLLMAQGKTEEAKFQFQLVTEMEPGNAGAWQQLLNLALKGEDIPEVIRICTACMELFPESPEYYFYLGIAYYQQQKYQEALNTYYAGLNIIPKENLPLKSDFYGQIGDIYYQMGQLDQAYKAYDEALKYNDKNVVVLNNYSYFLSLEKKDLKKAERMSAQCIKLEPDNATYLDTYAWIFFVQGNYTLAKIYIESALEKDKTKSAELVDHYGDILFMNGDKEKAVEQWKKAKEMGKDSEILNRKIAEQQYIEDENAK,not soluble
14,MGSDKIHHHHHHDMNKLDSDYSVYTDYDNSVHFNEFSTYYLPDSILVPDNSLKANYWKDENAQNIISAVAHEMEQKGYVRTEDKEKANVGIQLSYAQQRIQMTTGGWYGGWWDAGFWGPYWGGGWYYPYPVTYSYDTGTLIMEMVDLRQPADKSNQNKLPVIWHAYASGLLYGNSHFNMQLTLNAVNQAFAQSPYLSNKQ,not soluble
15,MGSDKIHHHHHHDTDKGLARRLPPPVPKDQKNDTDVDIKKRNLLVVLINSNNQILCGDQFVDIKQLKERIKEFIDNPYNDEHKPERVEADVPFFGKMMVTKNHVISLQNDRGTEYQAYIDVQNEIAAAYNELRNKVSKEKFGKNFADLDEEQQKAVQQIYPQKISEAEPKNYGGKK,not soluble
16,MGSDKIHHHHHHEDDNIRPFGKDVEAGAPGVVSEIKVKNIPGGAVISYQLPDNPDIMYVRARYKVGQGKEMEARASVYANELTVNGFGDMNEHEVELSCVDRMENEGATTVAVVTPLKPSVLTTFESLEVNATFGGVYVNFKNPEKASLSIHVVTTDSLNQPYEAHVQYTQAEKGPFYVRGFKAEERMFDIYVVDRWGNSSDTLYNVLTPYEETRLNKKLFYPYILPNDVACNAWGGNLAYAWNDDYTPALFVHSPGGDTFPMWFTFDMGVTAKLSRYKFYHLFMEEHAFQRGNLKTWEVWGRTDTPPADGSWDGWTKLMDCESHKPSGLPVGQHTAEDWEYLQAGEDFEFPAEAPPVRYIRFKVLETWGGMDFIHFTEFTFWGNVISNN,not soluble
17,MGSDKIHHHHHHEEDNTELSEEDRVAEMFREAGFKVEKLSSKPVNPPMTEKEASLFLAAYKNRERSGSIQIPSENIELKPDGHLVVKVKCNSEKKNFSRTRTVYKEEFDFTHWATYTVRDIEIECWQDIAGYWKSDNVNCTFTTRDPEYICGFPDINPNTGYSKGSLYFSINITVSRYSGWQIYSVDENYDYTLMLTWLPVAQEWNASLSWHETFW,not soluble
18,MGSDKIHHHHHHEHKDLCYDHPHFATVRVVFDWTKISNHDKPEGMRVVFYPTDDESNTWIFDFPGGEDGEVELPENDYRVICFNYDTDGMVWKENGSYTLFTADTRDVRSPDNQTMAVTPPWLCGDHIDRVILKDIPEGSTKIIRLTPVNMVCHYTYEVNGIRGLDRVADLRAALSGMSGSLNMSGDSLPADLSESLLFDGMVSRNQIIGGFYTFGHSALEGEPNVFRLYLKNRSGSMSVLEQDVSDQVHDVPVAGHIGDVHLVLNFDYEVPSEPGSGGPGFDVDVDDWDDVNVDIVL,not soluble
19,MGSDKIHHHHHHEIFSEITTDNYYQNSNNIYAALVNNYAKAFSTGWSDARYFLQEVTADQLMIPTRGKHGYNGGEYVRLHEHKWTVEENFVYNGWAAPFQGIALCNNTLSDFENLDFSTFKLTEETKNEYIAELRALRVWNYMFLIDFFRHVPIVTDIEEVKAQSTPLEVFNFMESELLAILPDLPKNRGVSRFDQAGVASILVRLYLNAEKWIGISKYDECEQMAQAILDGKYGEYSIDPDYRGPFRSGINGYRSKENIMEFAIKKNYFEASWLYNMWMHYQDRYSLDNDWQGWNGGNLAPSRDLYGNLYQDKLGMPFEKFPDGDIRKKAFRVISNDGDYEGFFLMGTQYKFDYEKGYGFTDEVITGTEEYNGKPLVYVDQVGRFSEGETGLAKGSHVIYGEENTGYRLIKFPWLPQSKDLFQMNSIPEIRLAEIYYSLAECKYRSGDKIGAARLLDVVRKRYYKAEDWSKFSYESNISKLTDDEFVDELGREFIGERHRRIDLIRWNRFSEGAWWDKTPDATNQDVFPIPYRALNANPLLKQTTAGF,not soluble
20,MGSDKIHHHHHHENLYFQGLLPKYNILTEDQVQKIHENTMKILEEIGIEFEYEPALEVFRREGQKVEGKRVYLTREFVESKLKSAPAEFTLHARNPENNVVIGGDNIVFMPGYGAPFIYELDGSRRKTTLQDYENFAKLAGASKNMHLSGGTMAEPQDIPDGVRHLQMLYSSIKNSDKCFMGSAEGKERAEDSVEIAAILFGGKDVIKEKPVLVSLINSLTPLKYDERMLGALMAYAEAGQAVIIASLVMAGSTGPASLAGTLSLQNAEVLAGISLAQSINPGTPVIYGSTSALSDMRSGSLSIGSPECALFISASAQLARFYGVPSRSGGGLNDSKTVDAQAGYESMMTLMAANLTGVNFVLHTAGILQYFMAMSYEKFIMDDEIAGMLLHYMKGYTFDEDGMAFDVIEKVGPGGHFLTQKHTRKNHKREFYTPTLSDRSAYDTWAKEKLETKQRAHARWQQILANYVPPALDPEIDAKLQAFIAQRGKEVGEE,soluble
